Source: paper PMC10786891, “Massively parallel profiling of RNA-targeting CRISPR-Cas13d”

T1: EsCas13d, nuclease-dead (Eubacterium siraeum, UniProt B0MS50, R295A;H300A;R849A;H854A)
T1 sequence: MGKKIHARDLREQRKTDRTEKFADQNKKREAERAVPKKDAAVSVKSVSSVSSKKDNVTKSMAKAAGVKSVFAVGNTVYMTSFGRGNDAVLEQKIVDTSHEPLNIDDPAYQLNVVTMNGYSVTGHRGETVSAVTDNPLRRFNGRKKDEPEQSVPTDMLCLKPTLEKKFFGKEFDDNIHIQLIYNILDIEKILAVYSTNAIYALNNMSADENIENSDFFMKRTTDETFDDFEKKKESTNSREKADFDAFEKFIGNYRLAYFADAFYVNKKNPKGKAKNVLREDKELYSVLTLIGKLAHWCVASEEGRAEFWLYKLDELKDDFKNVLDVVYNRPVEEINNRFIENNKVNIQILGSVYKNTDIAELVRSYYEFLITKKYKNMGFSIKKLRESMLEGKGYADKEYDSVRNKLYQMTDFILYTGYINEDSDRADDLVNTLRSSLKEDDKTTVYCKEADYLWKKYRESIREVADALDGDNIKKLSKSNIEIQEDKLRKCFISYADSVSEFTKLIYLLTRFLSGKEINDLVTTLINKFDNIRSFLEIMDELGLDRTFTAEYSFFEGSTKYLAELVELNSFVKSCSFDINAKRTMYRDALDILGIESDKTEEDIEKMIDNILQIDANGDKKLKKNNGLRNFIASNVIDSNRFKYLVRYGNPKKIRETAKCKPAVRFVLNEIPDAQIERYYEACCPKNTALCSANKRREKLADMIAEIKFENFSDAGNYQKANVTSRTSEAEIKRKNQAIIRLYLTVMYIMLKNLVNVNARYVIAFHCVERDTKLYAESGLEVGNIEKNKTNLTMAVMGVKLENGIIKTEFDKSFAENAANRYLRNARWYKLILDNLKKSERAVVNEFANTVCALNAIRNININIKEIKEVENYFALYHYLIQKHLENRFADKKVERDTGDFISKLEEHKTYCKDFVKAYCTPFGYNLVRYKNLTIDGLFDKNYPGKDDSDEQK


Biological target: T1, EsCas13d, nuclease-dead
Experiment: crRNA (strand 1, pre-loaded); Mg2+; 40 mM Tris-HCl pH 7.5, 150 mM NaCl, 6 mM MgCl2, 1 mM DTT, 0.1% Tween-20, 0.2 mg/ml BSA; 25 C; 10 min per concentration, then washed
Conditions: tags: His6-TwinStrep-SUMO cleaved; N-terminal SNAP kept (SNAP-Surface 488); label: 3' end held by stalled T7 RNA polymerase

| Binder | Kd [nM] |
| --- | --- |
| target 1 insU 3' of 20,insA 3' of 17 (mixed) RNA 1: CACCCGUGCAAAAAUGCAGGGGUCUAAAACUGAGCGGAUAACCUCUCUAUGG RNA 2: GGGAAUGGAUCCACAUCUACGAAUUCGUACCAUUAGAAGAGGUUAUCCGCUCACCGAGAUCGGAAGAGCACACGU | 27.3 ± 2.4 |
| target 1 C2A,U8A (mixed) RNA 1: CACCCGUGCAAAAAUGCAGGGGUCUAAAACUGAGCGGAUAACCUCUCUAUGG RNA 2: GGGAAUGGAUCCACAUCUACGAAUUCGUACCAUAGAGAGGUUAACCGCUAACCGAGAUCGGAAGAGCACACGU | 19.7 ± 0.8 |
| target 2 MT 5'PFS AUA 3'PFS AGU (mixed) RNA 1: CACCCGUGCAAAAUUGCAGGGGUCUAAAACCUUCUCCAAAUUGUUUCAUCCU RNA 2: GGGAAUGGAUCCACAUCUACGAAUUCAUAAGGAUGAAACAAUUUGGAGAAGAGUAGAUCGGAAGAGCACACGU | 26 ± 6 |
| target 2 MT 5'PFS UAA 3'PFS CAU (mixed) RNA 1: CACCCGUGCAAAAUUGCAGGGGUCUAAAACCUUCUCCAAAUUGUUUCAUCCU RNA 2: GGGAAUGGAUCCACAUCUACGAAUUCUAAAGGAUGAAACAAUUUGGAGAAGCAUAGAUCGGAAGAGCACACGU | 4.9 ± 0.8 |
| target 2 MT 5'PFS GUC 3'PFS AAC (mixed) RNA 1: CACCCGUGCAAAAUUGCAGGGGUCUAAAACCUUCUCCAAAUUGUUUCAUCCU RNA 2: GGGAAUGGAUCCACAUCUACGAAUUCGUCAGGAUGAAACAAUUUGGAGAAGAACAGAUCGGAAGAGCACACGU | 9.7 ± 1.5 |
| target 2 MT 5'PFS AUG 3'PFS ACU (mixed) RNA 1: CACCCGUGCAAAAUUGCAGGGGUCUAAAACCUUCUCCAAAUUGUUUCAUCCU RNA 2: GGGAAUGGAUCCACAUCUACGAAUUCAUGAGGAUGAAACAAUUUGGAGAAGACUAGAUCGGAAGAGCACACGU | 11.6 ± 1.9 |
| target 2 MT 5'PFS UGU 3'PFS AGC (mixed) RNA 1: CACCCGUGCAAAAUUGCAGGGGUCUAAAACCUUCUCCAAAUUGUUUCAUCCU RNA 2: GGGAAUGGAUCCACAUCUACGAAUUCUGUAGGAUGAAACAAUUUGGAGAAGAGCAGAUCGGAAGAGCACACGU | 12.5 ± 2.1 |
| target 2 MT 5'PFS GCC 3'PFS CAU (mixed) RNA 1: CACCCGUGCAAAAUUGCAGGGGUCUAAAACCUUCUCCAAAUUGUUUCAUCCU RNA 2: GGGAAUGGAUCCACAUCUACGAAUUCGCCAGGAUGAAACAAUUUGGAGAAGCAUAGAUCGGAAGAGCACACGU | 14 ± 4 |
| target 2 MT 5'PFS UCG 3'PFS AAU (mixed) RNA 1: CACCCGUGCAAAAUUGCAGGGGUCUAAAACCUUCUCCAAAUUGUUUCAUCCU RNA 2: GGGAAUGGAUCCACAUCUACGAAUUCUCGAGGAUGAAACAAUUUGGAGAAGAAUAGAUCGGAAGAGCACACGU | ~24 |
| target 2 MT 5'PFS GUG 3'PFS CAA (mixed) RNA 1: CACCCGUGCAAAAUUGCAGGGGUCUAAAACCUUCUCCAAAUUGUUUCAUCCU RNA 2: GGGAAUGGAUCCACAUCUACGAAUUCGUGAGGAUGAAACAAUUUGGAGAAGCAAAGAUCGGAAGAGCACACGU | 6.8 ± 0.6 |
| target 2 MT 5'PFS UAA 3'PFS CAA (mixed) RNA 1: CACCCGUGCAAAAUUGCAGGGGUCUAAAACCUUCUCCAAAUUGUUUCAUCCU RNA 2: GGGAAUGGAUCCACAUCUACGAAUUCUAAAGGAUGAAACAAUUUGGAGAAGCAAAGAUCGGAAGAGCACACGU | 2.4 ± 0.4 |
| target 2 MT 5'PFS CUG 3'PFS CGU (mixed) RNA 1: CACCCGUGCAAAAUUGCAGGGGUCUAAAACCUUCUCCAAAUUGUUUCAUCCU RNA 2: GGGAAUGGAUCCACAUCUACGAAUUCCUGAGGAUGAAACAAUUUGGAGAAGCGUAGAUCGGAAGAGCACACGU | 3.9 ± 0.6 |
| target 2 MT 5'PFS GUC 3'PFS AAA (mixed) RNA 1: CACCCGUGCAAAAUUGCAGGGGUCUAAAACCUUCUCCAAAUUGUUUCAUCCU RNA 2: GGGAAUGGAUCCACAUCUACGAAUUCGUCAGGAUGAAACAAUUUGGAGAAGAAAAGAUCGGAAGAGCACACGU | 8.8 ± 1.5 |
| target 2 MT 5'PFS AGA 3'PFS CUC (mixed) RNA 1: CACCCGUGCAAAAUUGCAGGGGUCUAAAACCUUCUCCAAAUUGUUUCAUCCU RNA 2: GGGAAUGGAUCCACAUCUACGAAUUCAGAAGGAUGAAACAAUUUGGAGAAGCUCAGAUCGGAAGAGCACACGU | 11.7 ± 1.9 |
| target 2 MT 5'PFS GAG 3'PFS UCG (mixed) RNA 1: CACCCGUGCAAAAUUGCAGGGGUCUAAAACCUUCUCCAAAUUGUUUCAUCCU RNA 2: GGGAAUGGAUCCACAUCUACGAAUUCGAGAGGAUGAAACAAUUUGGAGAAGUCGAGAUCGGAAGAGCACACGU | 10.7 ± 0.9 |
| target 2 MT 5'PFS GAG 3'PFS UCC (mixed) RNA 1: CACCCGUGCAAAAUUGCAGGGGUCUAAAACCUUCUCCAAAUUGUUUCAUCCU RNA 2: GGGAAUGGAUCCACAUCUACGAAUUCGAGAGGAUGAAACAAUUUGGAGAAGUCCAGAUCGGAAGAGCACACGU | 29 ± 5 |
| target 2 MT 5'PFS AGA 3'PFS CUA (mixed) RNA 1: CACCCGUGCAAAAUUGCAGGGGUCUAAAACCUUCUCCAAAUUGUUUCAUCCU RNA 2: GGGAAUGGAUCCACAUCUACGAAUUCAGAAGGAUGAAACAAUUUGGAGAAGCUAAGAUCGGAAGAGCACACGU | 7.6 ± 1.4 |
| target 2 MT 5'PFS GCC 3'PFS CAG (mixed) RNA 1: CACCCGUGCAAAAUUGCAGGGGUCUAAAACCUUCUCCAAAUUGUUUCAUCCU RNA 2: GGGAAUGGAUCCACAUCUACGAAUUCGCCAGGAUGAAACAAUUUGGAGAAGCAGAGAUCGGAAGAGCACACGU | 9.4 ± 0.8 |
| target 2 MT 5'PFS GCC 3'PFS CAC (mixed) RNA 1: CACCCGUGCAAAAUUGCAGGGGUCUAAAACCUUCUCCAAAUUGUUUCAUCCU RNA 2: GGGAAUGGAUCCACAUCUACGAAUUCGCCAGGAUGAAACAAUUUGGAGAAGCACAGAUCGGAAGAGCACACGU | 13 ± 1.7 |
| target 2 MT 5'PFS GCC 3'PFS CAA (mixed) RNA 1: CACCCGUGCAAAAUUGCAGGGGUCUAAAACCUUCUCCAAAUUGUUUCAUCCU RNA 2: GGGAAUGGAUCCACAUCUACGAAUUCGCCAGGAUGAAACAAUUUGGAGAAGCAAAGAUCGGAAGAGCACACGU | ~27 |
| target 2 MT 5'PFS UGC 3'PFS GGC (mixed) RNA 1: CACCCGUGCAAAAUUGCAGGGGUCUAAAACCUUCUCCAAAUUGUUUCAUCCU RNA 2: GGGAAUGGAUCCACAUCUACGAAUUCUGCAGGAUGAAACAAUUUGGAGAAGGGCAGAUCGGAAGAGCACACGU | 43 ± 10 |
| target 2 MT 5'PFS GUC 3'PFS AAU (mixed) RNA 1: CACCCGUGCAAAAUUGCAGGGGUCUAAAACCUUCUCCAAAUUGUUUCAUCCU RNA 2: GGGAAUGGAUCCACAUCUACGAAUUCGUCAGGAUGAAACAAUUUGGAGAAGAAUAGAUCGGAAGAGCACACGU | 12.8 ± 2.8 |
| target 2 MT 5'PFS UUU 3'PFS AUU (mixed) RNA 1: CACCCGUGCAAAAUUGCAGGGGUCUAAAACCUUCUCCAAAUUGUUUCAUCCU RNA 2: GGGAAUGGAUCCACAUCUACGAAUUCUUUAGGAUGAAACAAUUUGGAGAAGAUUAGAUCGGAAGAGCACACGU | 9.1 ± 1 |
| target 2 MT 5'PFS GUC 3'PFS AAG (mixed) RNA 1: CACCCGUGCAAAAUUGCAGGGGUCUAAAACCUUCUCCAAAUUGUUUCAUCCU RNA 2: GGGAAUGGAUCCACAUCUACGAAUUCGUCAGGAUGAAACAAUUUGGAGAAGAAGAGAUCGGAAGAGCACACGU | 16.8 ± 3.5 |
| target 2 MT 5'PFS UGU 3'PFS AGU (mixed) RNA 1: CACCCGUGCAAAAUUGCAGGGGUCUAAAACCUUCUCCAAAUUGUUUCAUCCU RNA 2: GGGAAUGGAUCCACAUCUACGAAUUCUGUAGGAUGAAACAAUUUGGAGAAGAGUAGAUCGGAAGAGCACACGU | 14.8 ± 2.4 |
| target 2 MT 5'PFS UCG 3'PFS AAG (mixed) RNA 1: CACCCGUGCAAAAUUGCAGGGGUCUAAAACCUUCUCCAAAUUGUUUCAUCCU RNA 2: GGGAAUGGAUCCACAUCUACGAAUUCUCGAGGAUGAAACAAUUUGGAGAAGAAGAGAUCGGAAGAGCACACGU | 32 ± 11 |
| target 2 MT 5'PFS UAA 3'PFS CAC (mixed) RNA 1: CACCCGUGCAAAAUUGCAGGGGUCUAAAACCUUCUCCAAAUUGUUUCAUCCU RNA 2: GGGAAUGGAUCCACAUCUACGAAUUCUAAAGGAUGAAACAAUUUGGAGAAGCACAGAUCGGAAGAGCACACGU | 5.6 ± 1.8 |
| target 2 MT 5'PFS GAG 3'PFS UCA (mixed) RNA 1: CACCCGUGCAAAAUUGCAGGGGUCUAAAACCUUCUCCAAAUUGUUUCAUCCU RNA 2: GGGAAUGGAUCCACAUCUACGAAUUCGAGAGGAUGAAACAAUUUGGAGAAGUCAAGAUCGGAAGAGCACACGU | 8 ± 0.8 |
